These are literature values, as cited in patent publication US9145575B2, “Detection of protease and protease activity using a single nanocrescent SERS probe” (The Regents of the University of California, priority 2006, dated 2015).

This data set addresses PSA (Homo sapiens, UniProt P07288). The following applies: mouse model.

PSA, sequence (P07288 25-261): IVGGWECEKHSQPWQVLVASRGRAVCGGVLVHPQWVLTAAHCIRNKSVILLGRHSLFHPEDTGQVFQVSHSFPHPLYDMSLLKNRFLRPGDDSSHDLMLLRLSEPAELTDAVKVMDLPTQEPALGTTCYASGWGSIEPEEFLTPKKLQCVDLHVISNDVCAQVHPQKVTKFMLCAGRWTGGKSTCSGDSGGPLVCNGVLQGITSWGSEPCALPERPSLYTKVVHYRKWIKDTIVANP

Take “HSSKLQ-L (HSSKLQLAAAC; Synthetic protease substrate)”: the “cleavage by proteases in vivo” value was “cleaved by PSA but not by any other proteases”.
